Experimental data from the supplement of paper PMC9112550, “Optimization of the antimicrobial peptide Bac7 by deep mutational scanning” (BMC Biology, 2022).

Test system: Escherichia coli TOP10
Assay: shrunken log2 fold change of peptide-encoding DNA abundance (4.5 h post-induction vs induction); higher = less antimicrobial activity (less host growth inhibition)
Details: time post-induction: 4.5 h; library: site-saturation at positions 5, 18, 19, 20
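Note: peptides expressed intracellularly from a pBAD plasmid library in pooled LB shake-flask culture, induced with 0.3% L-arabinose, DNA abundance read by NGS, three biological replicates, DESeq2 with apeglm shrinkage.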

Row | Sequence | shrunken log2 fold change
1 | RRIRMRPPRLPRPRPRPNPQPRP | 0.279
2 | RRIRMRPPRLPRPRPRPNPWPRP | 0.123
3 | RRIRMRPPRLPRPRPRPNSNPRP | -0.177
4 | RRIRMRPPRLPRPRPRPNSWPRP | 0.122
5 | RRIRMRPPRLPRPRPRPNTIPRP | -0.3
6 | RRIRMRPPRLPRPRPRPNVEPRP | 0.0231
7 | RRIRMRPPRLPRPRPRPNVNPRP | 0.148
8 | RRIRMRPPRLPRPRPRPNWYPRP | -0.0601
9 | RRIRMRPPRLPRPRPRPNYPPRP | -0.445
10 | RRIRMRPPRLPRPRPRPNYRPRP | -0.133
11 | RRIRMRPPRLPRPRPRPPAKPRP | 1.06
12 | RRIRMRPPRLPRPRPRPPASPRP | 1.65
13 | RRIRMRPPRLPRPRPRPPAVPRP | 1.44
14 | RRIRMRPPRLPRPRPRPPCPPRP | 0.564
15 | RRIRMRPPRLPRPRPRPPCQPRP | 0.505
16 | RRIRMRPPRLPRPRPRPPCSPRP | 0.489
17 | RRIRMRPPRLPRPRPRPPDAPRP | 1.53
18 | RRIRMRPPRLPRPRPRPPEDPRP | 1.66
19 | RRIRMRPPRLPRPRPRPPEIPRP | 0.48
20 | RRIRMRPPRLPRPRPRPPEPPRP | 0.296
21 | RRIRMRPPRLPRPRPRPPFAPRP | 1.07
22 | RRIRMRPPRLPRPRPRPPFCPRP | 0.0505
23 | RRIRMRPPRLPRPRPRPPFGPRP | 0.789
24 | RRIRMRPPRLPRPRPRPPFYPRP | -0.182
25 | RRIRMRPPRLPRPRPRPPGGPRP | 1.15

Row | Sequence | shrunken log2 fold change
26 | RRIRMRPPRLPRPRPRPPGNPRP | 0.475
27 | RRIRMRPPRLPRPRPRPPIRPRP | 0.248
28 | RRIRMRPPRLPRPRPRPPKHPRP | 0.829
29 | RRIRMRPPRLPRPRPRPPKYPRP | -0.0762
30 | RRIRMRPPRLPRPRPRPPLDPRP | 1.03
31 | RRIRMRPPRLPRPRPRPPLRPRP | 0.852
32 | RRIRMRPPRLPRPRPRPPMPPRP | 0.703
33 | RRIRMRPPRLPRPRPRPPQPPRP | 1.37
34 | RRIRMRPPRLPRPRPRPPRMPRP | 0.893
35 | RRIRMRPPRLPRPRPRPPSHPRP | 0.622
36 | RRIRMRPPRLPRPRPRPPSWPRP | 0.245
37 | RRIRMRPPRLPRPRPRPPTKPRP | 0.508
38 | RRIRMRPPRLPRPRPRPPTSPRP | 1.23
39 | RRIRMRPPRLPRPRPRPPVKPRP | 0.512
40 | RRIRMRPPRLPRPRPRPPVMPRP | 0.616
41 | RRIRMRPPRLPRPRPRPPVQPRP | 0.378
42 | RRIRMRPPRLPRPRPRPPVWPRP | 0.825
43 | RRIRMRPPRLPRPRPRPPWVPRP | 0.241
44 | RRIRMRPPRLPRPRPRPPYWPRP | 0.37
45 | RRIRMRPPRLPRPRPRPQACPRP | -0.12
46 | RRIRMRPPRLPRPRPRPQANPRP | 0.271
47 | RRIRMRPPRLPRPRPRPQCPPRP | -0.181
48 | RRIRMRPPRLPRPRPRPQFGPRP | 0.104
49 | RRIRMRPPRLPRPRPRPQGNPRP | -0.0324
50 | RRIRMRPPRLPRPRPRPQGQPRP | 0.253

Row | Sequence | shrunken log2 fold change
51 | RRIRMRPPRLPRPRPRPQHNPRP | -0.605
52 | RRIRMRPPRLPRPRPRPQHPPRP | -0.0395
53 | RRIRMRPPRLPRPRPRPQIMPRP | -0.0466
54 | RRIRMRPPRLPRPRPRPQISPRP | -0.28
55 | RRIRMRPPRLPRPRPRPQIYPRP | -0.464
56 | RRIRMRPPRLPRPRPRPQKKPRP | -0.0151
57 | RRIRMRPPRLPRPRPRPQNEPRP | 0.155
58 | RRIRMRPPRLPRPRPRPQNVPRP | -0.0183
59 | RRIRMRPPRLPRPRPRPQQDPRP | 0.741
60 | RRIRMRPPRLPRPRPRPQQKPRP | 0.0182
61 | RRIRMRPPRLPRPRPRPQSCPRP | -0.00838
62 | RRIRMRPPRLPRPRPRPQSFPRP | -0.199
63 | RRIRMRPPRLPRPRPRPQSMPRP | 0.143
64 | RRIRMRPPRLPRPRPRPQTYPRP | 0.144
65 | RRIRMRPPRLPRPRPRPQVAPRP | 0.0435
66 | RRIRMRPPRLPRPRPRPQVNPRP | 0.166
67 | RRIRMRPPRLPRPRPRPQWFPRP | -0.0662
68 | RRIRMRPPRLPRPRPRPQYLPRP | -0.0275
69 | RRIRMRPPRLPRPRPRPRAIPRP | 0.52
70 | RRIRMRPPRLPRPRPRPRALPRP | 2.22
71 | RRIRMRPPRLPRPRPRPRCEPRP | 0.704
72 | RRIRMRPPRLPRPRPRPRCFPRP | 0.397
73 | RRIRMRPPRLPRPRPRPRDAPRP | 1.49
74 | RRIRMRPPRLPRPRPRPRDEPRP | 1.43
75 | RRIRMRPPRLPRPRPRPRFGPRP | 0.853

Row | Sequence | shrunken log2 fold change
76 | RRIRMRPPRLPRPRPRPRGWPRP | 1.34
77 | RRIRMRPPRLPRPRPRPRHHPRP | 0.415
78 | RRIRMRPPRLPRPRPRPRKSPRP | 0.902
79 | RRIRMRPPRLPRPRPRPRLGPRP | 0.644
80 | RRIRMRPPRLPRPRPRPRLPPRP | 0.805
81 | RRIRMRPPRLPRPRPRPRQFPRP | 0.582
82 | RRIRMRPPRLPRPRPRPRQIPRP | 1.19
83 | RRIRMRPPRLPRPRPRPRQMPRP | 0.862
84 | RRIRMRPPRLPRPRPRPRQNPRP | 0.62
85 | RRIRMRPPRLPRPRPRPRSLPRP | 0.27
86 | RRIRMRPPRLPRPRPRPRVGPRP | 1.02
87 | RRIRMRPPRLPRPRPRPRVQPRP | 0.64
88 | RRIRMRPPRLPRPRPRPRWDPRP | 0.793
89 | RRIRMRPPRLPRPRPRPRYDPRP | 0.185
90 | RRIRMRPPRLPRPRPRPRYIPRP | -0.31
91 | RRIRMRPPRLPRPRPRPRYVPRP | -0.18
92 | RRIRMRPPRLPRPRPRPSASPRP | 1.7
93 | RRIRMRPPRLPRPRPRPSCVPRP | 0.22
94 | RRIRMRPPRLPRPRPRPSDLPRP | -0.035
95 | RRIRMRPPRLPRPRPRPSDPPRP | -0.0636
96 | RRIRMRPPRLPRPRPRPSFDPRP | 0.485
97 | RRIRMRPPRLPRPRPRPSHCPRP | 0.0171
98 | RRIRMRPPRLPRPRPRPSIMPRP | 0.23
99 | RRIRMRPPRLPRPRPRPSLIPRP | -0.245
100 | RRIRMRPPRLPRPRPRPSLVPRP | -0.252

Row | Sequence | shrunken log2 fold change
101 | RRIRMRPPRLPRPRPRPSMNPRP | -0.287
102 | RRIRMRPPRLPRPRPRPSPEPRP | 1.12
103 | RRIRMRPPRLPRPRPRPSREPRP | 0.545
104 | RRIRMRPPRLPRPRPRPSRVPRP | 0.885
105 | RRIRMRPPRLPRPRPRPSSSPRP | 0.0411
106 | RRIRMRPPRLPRPRPRPSSVPRP | 3.19
107 | RRIRMRPPRLPRPRPRPSTEPRP | 1.63
108 | RRIRMRPPRLPRPRPRPSTKPRP | 0.291
109 | RRIRMRPPRLPRPRPRPSTTPRP | 0.352
110 | RRIRMRPPRLPRPRPRPSVHPRP | -0.0707
111 | RRIRMRPPRLPRPRPRPSVQPRP | 0.296
112 | RRIRMRPPRLPRPRPRPSWKPRP | -0.181
113 | RRIRMRPPRLPRPRPRPTAVPRP | 1.64
114 | RRIRMRPPRLPRPRPRPTCQPRP | -0.049
115 | RRIRMRPPRLPRPRPRPTDVPRP | 0.141
116 | RRIRMRPPRLPRPRPRPTEMPRP | 0.14
117 | RRIRMRPPRLPRPRPRPTFRPRP | -0.091
118 | RRIRMRPPRLPRPRPRPTHPPRP | 0.564
119 | RRIRMRPPRLPRPRPRPTIHPRP | -0.134
120 | RRIRMRPPRLPRPRPRPTKGPRP | 0.258
121 | RRIRMRPPRLPRPRPRPTLVPRP | 0.171
122 | RRIRMRPPRLPRPRPRPTNCPRP | 0.0955
123 | RRIRMRPPRLPRPRPRPTNTPRP | 0.176
124 | RRIRMRPPRLPRPRPRPTPAPRP | 2.13
125 | RRIRMRPPRLPRPRPRPTPNPRP | 0.87

Row | Sequence | shrunken log2 fold change
126 | RRIRMRPPRLPRPRPRPTPRPRP | 1.46
127 | RRIRMRPPRLPRPRPRPTRDPRP | 0.314
128 | RRIRMRPPRLPRPRPRPTRYPRP | 0.628
129 | RRIRMRPPRLPRPRPRPTTEPRP | 0.897
130 | RRIRMRPPRLPRPRPRPTTGPRP | 0.467
131 | RRIRMRPPRLPRPRPRPTWIPRP | 0.0438
132 | RRIRMRPPRLPRPRPRPTYAPRP | 0.0341
133 | RRIRMRPPRLPRPRPRPTYVPRP | -0.197
134 | RRIRMRPPRLPRPRPRPVARPRP | 0.407
135 | RRIRMRPPRLPRPRPRPVDQPRP | 0.0463
136 | RRIRMRPPRLPRPRPRPVDRPRP | 0.278
137 | RRIRMRPPRLPRPRPRPVGEPRP | 0.141
138 | RRIRMRPPRLPRPRPRPVGFPRP | 0.405
139 | RRIRMRPPRLPRPRPRPVGHPRP | 0.193
140 | RRIRMRPPRLPRPRPRPVGRPRP | 0.724
141 | RRIRMRPPRLPRPRPRPVHPPRP | 0.127
142 | RRIRMRPPRLPRPRPRPVHSPRP | 0.0125
143 | RRIRMRPPRLPRPRPRPVIIPRP | -0.331
144 | RRIRMRPPRLPRPRPRPVKDPRP | 0.0812
145 | RRIRMRPPRLPRPRPRPVLPPRP | -0.0643
146 | RRIRMRPPRLPRPRPRPVLSPRP | 0.0984
147 | RRIRMRPPRLPRPRPRPVMQPRP | -0.221
148 | RRIRMRPPRLPRPRPRPVNIPRP | -0.361
149 | RRIRMRPPRLPRPRPRPVNTPRP | 0.0779
150 | RRIRMRPPRLPRPRPRPVPEPRP | 1.21
